# Experimental data: patent publication US9796777B2, “Methods of treating malignant tumors” (Canimguide Therapeutics AB, priority 2007, dated 2017)
# Assays:
# [1] = target: T1, β2-integrin LFA-1 (CD11a) (Homo sapiens, UniProt P20701); test: Immunocytochemical staining of PBMC and THP-1 with anti-integrin (CD11a) antibody with or without albumin peptides; assay type: binding
# T1 construct: endogenous in cells; host or cells: human PBMC (healthy controls, cancer patients) and THP-1 monocytic cell line (ATCC)
# Procedure: Cytospin preparations of mononuclear blood cells from healthy controls, cancer patients and a monocytic cell line, THP-1, were prepared (as described under materials and methods), dried and stored at −70° C. In the immunocytological staining, unspecific staining was blocked by incubation with 10% human AB serum. Some of the slides were preincubated for 60 minutes with albumin peptides at a concentration of 40 μg/ml, added to this 10% AB serum, as indicated in the FIG. 8 A-F. The staining procedure was then continued as described in material and methods. The staining intensity of slides stained with and without preincubation with the peptides was recorded semi quantitatively using a standard light microscope.
# PBMC were separated as described above. Cultured THP-1 cells (obtained from the American Type Culture Collection through LGL Nordic AB, Sweden) were carefully washed and suspended in RPMI1640. PBMC and THP-1 were immediately spun down on pre-cleaned microscope slides in a Shandon Cytospin (Shandon Scientific Ltd, UK) at 1000 RPM for 7 min at 2.5 or 5×10^4 cells per slide. The slides were left to dry at room temperature over night, after which they were wrapped in parafilm and stored at −70° C. Immediately before use, the cytospins were thawed and fixed with acetone for 5 min at room temperature. The cytospins were first blocked with 10% normal human AB-serum with and without albumin peptides (40 ␣g/ml) for 1 h before staining. Primary antibody, consisting of a monoclonal mouse anti-human CD11a (clone HI111, BD Biosciences) diluted in Tris buffered saline (TBS, pH 7.6) at 5 μg/ml (THP-1) or 1 µg/ml (PBMC), was added. The slides were incubated for 30 min and then washed in TBS followed by Envision-Alkaline Phosphatase (Dako Norden A/S, Denmark) for 30 min. After additional washing in TBS, the slides were incubated in alkaline phoshatase substrate consisting of Fast Red TR salt (Sigma), naphtol AS-MX (Sigma) and 5 mM levamisol (Sigma) to block endogenous alkaline phosphatase activity, for 20 min followed by washing in TBS. They were then counterstained in Mayer's haematoxylin for 1 minute and mounted in Glycergel (Dako Norden NS). Monoclonal mouse IgG1 against an irrelevant antigen (Aspergillus niger glukosoxidase, Dako Norden NS) was used as a negative control. All incubations were performed at room temperature in a moist chamber.
# FIG. 24. Inhibition of the binding of anti-LFA-1, mab HI111, to mononuclear blood cells by 3028 peptide and fragments 3325 and 3218. A standard immunohistochemical staining procedure using acetone fixation, 10% human AB-serum for blocking, incubation with HI 111 and a secondary antibody (Ultravision, an alkaline phosphate conjugated polymer attached to Fab-fragments of goat anti-mouse Ig), followed by development with Fast Red. The slides were then mounted in Glycergel. Preincubation with peptides added to the AB serum was as follows: A. No peptide added, B. peptide 3028, C. The C-terminal part (3218), and D. The N-terminal part (3325).
# PBMC = test: Human ex vivo model: IL-2 induced proliferation of PBMC in the presence of albumin peptides; conditions: alone or in combination
# rabbit anti-3028 = test: Inhibition of rabbit anti-3028 ELISA by albumin peptides; assay type: binding; conditions: Table 9 summary
# Procedure: To test if albumin peptides inhibited the binding of the rabbit anti-3028 to 3028 coated wells, rabbit antisera, diluted 1/1000 000 in ELISA reagent diluent, was pre-incubated for 1 hr at room temperature with the indicated concentrations of the peptides. 100 μl of the […], or, alternatively, the monoclonal antibody mixed with peptides, was then added to 3028 coated wells and the ELISA carried out as described.
# T1 sequence (P20701 26-1170): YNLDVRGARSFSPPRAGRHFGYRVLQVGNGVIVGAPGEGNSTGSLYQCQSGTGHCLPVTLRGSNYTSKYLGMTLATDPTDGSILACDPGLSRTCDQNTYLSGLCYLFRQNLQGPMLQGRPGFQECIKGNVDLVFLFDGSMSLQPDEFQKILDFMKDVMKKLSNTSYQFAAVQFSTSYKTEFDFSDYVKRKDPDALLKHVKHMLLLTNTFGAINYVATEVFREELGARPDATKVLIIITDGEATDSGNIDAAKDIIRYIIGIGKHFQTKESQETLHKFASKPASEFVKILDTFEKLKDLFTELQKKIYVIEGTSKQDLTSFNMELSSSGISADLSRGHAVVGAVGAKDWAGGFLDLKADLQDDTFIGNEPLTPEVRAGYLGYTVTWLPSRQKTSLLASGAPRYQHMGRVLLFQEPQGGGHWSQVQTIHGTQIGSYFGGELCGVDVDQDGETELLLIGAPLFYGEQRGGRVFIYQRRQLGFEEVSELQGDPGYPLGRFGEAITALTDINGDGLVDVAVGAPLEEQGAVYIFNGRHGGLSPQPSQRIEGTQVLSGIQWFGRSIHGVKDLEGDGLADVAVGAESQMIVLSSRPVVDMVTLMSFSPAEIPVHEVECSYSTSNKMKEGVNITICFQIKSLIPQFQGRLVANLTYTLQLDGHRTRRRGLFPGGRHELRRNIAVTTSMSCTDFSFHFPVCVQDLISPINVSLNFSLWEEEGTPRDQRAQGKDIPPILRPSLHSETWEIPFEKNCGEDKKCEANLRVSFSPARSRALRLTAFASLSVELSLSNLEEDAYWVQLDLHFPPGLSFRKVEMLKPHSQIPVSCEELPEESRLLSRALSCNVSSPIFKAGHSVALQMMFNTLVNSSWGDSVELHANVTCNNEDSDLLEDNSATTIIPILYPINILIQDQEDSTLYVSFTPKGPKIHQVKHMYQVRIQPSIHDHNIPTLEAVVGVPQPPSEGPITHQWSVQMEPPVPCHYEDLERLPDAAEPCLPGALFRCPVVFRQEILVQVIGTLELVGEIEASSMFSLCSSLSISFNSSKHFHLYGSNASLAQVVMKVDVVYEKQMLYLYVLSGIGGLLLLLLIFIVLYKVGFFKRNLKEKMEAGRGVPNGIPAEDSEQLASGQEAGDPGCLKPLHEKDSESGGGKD
# T1 sequence (P05107 23-769 partner): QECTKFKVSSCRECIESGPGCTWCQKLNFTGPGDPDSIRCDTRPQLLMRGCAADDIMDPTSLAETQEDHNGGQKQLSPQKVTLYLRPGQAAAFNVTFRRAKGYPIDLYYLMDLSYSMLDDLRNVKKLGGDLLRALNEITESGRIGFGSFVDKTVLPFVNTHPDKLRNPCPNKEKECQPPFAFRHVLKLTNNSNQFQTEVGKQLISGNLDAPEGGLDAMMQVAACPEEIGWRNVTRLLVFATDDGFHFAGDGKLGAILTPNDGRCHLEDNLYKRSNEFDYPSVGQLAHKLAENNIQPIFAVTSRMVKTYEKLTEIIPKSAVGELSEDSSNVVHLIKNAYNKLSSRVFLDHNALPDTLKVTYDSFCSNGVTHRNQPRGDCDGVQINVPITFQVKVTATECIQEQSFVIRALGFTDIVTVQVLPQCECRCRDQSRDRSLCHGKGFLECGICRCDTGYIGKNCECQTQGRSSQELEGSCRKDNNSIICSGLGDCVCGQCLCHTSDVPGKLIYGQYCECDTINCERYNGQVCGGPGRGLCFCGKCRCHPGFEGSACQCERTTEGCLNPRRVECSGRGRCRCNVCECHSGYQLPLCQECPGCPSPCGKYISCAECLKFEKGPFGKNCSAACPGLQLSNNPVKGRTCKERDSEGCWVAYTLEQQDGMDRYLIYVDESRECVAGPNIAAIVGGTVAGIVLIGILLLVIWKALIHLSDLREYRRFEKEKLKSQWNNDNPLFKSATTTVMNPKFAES
substance,measurement,setting,value
peptide 3218: C-terminal part of peptide 3028 (EPQNLIK),binding to LFA-1,[1]; Table 9 summary,Weak binding
same,effect on binding of the LFA-1 antibody (HI 111) to LFA-1,[1]; mononuclear blood cells,inhibit the binding of mAb HI 111 to LFA-1
same,neutralisation of the inhibitory effect of peptide 3028 on IL-2 induced proliferation,PBMC,not neutralised
same,binding to affinity purified antibodies,rabbit anti-3028,Does not bind
